{"source": "patent US12637662B2", "about": "“Cells, islets, and organoids that evade immune detection and autoimmunity, methods of production and use thereof” (SALK INSTITUTE FOR BIOLOGICAL STUDIES, priority 2018, dated 2026)", "molecules": {"B1": {"name": "WNT4: recombinant human Wnt4 protein (R&D Systems), non-canonical WNT maturation factor (protein, UniProt P56705 23-351, looked up)", "Protein Wnt-4": "SNWLYLAKLSSVGSISEEETCEKLKGLIQRQVQMCKRNLEVMDSVRRGAQLAIEECQYQFRNRRWNCSTLDSLPVFGKVVTQGTREAAFVYAISSAGVAFAVTRACSSGELEKCGCDRTVHGVSPQGFQWSGCSDNIAYGVAFSQSFVDVRERSKGASSSRALMNLHNNEAGRKAILTHMRVECKCHGVSGSCEVKTCWRAVPPFRQVGHALKEKFDGATEVEPRRVGSSRALVPRNAQFKPHTDEDLVYLEPSPDFCEQDMRSGVLGTRGRTCNKTSKAIDGCELLCCGRGFHTAQVELAERCSCKFHWCCFVKCRQCQRLVELHTCR"}}, "key": {"[1]": {"tested_on": "chromatin accessibility in HILO cells", "assay": "ATAC-Seq chromatin accessibility in HILOs", "assay_type": "cell-based, human", "details": "sorted GFP+ cells, WNT4 treatment", "text": "[…] D. Buenrostro et al., 2015, Current Protocols in Molecular Biology, 109:21-29. Reads were aligned by Bowtie to hg19, and peaks were called by HOMER using default settings. Differential peaks and motif analyses from 2 biological duplicates were identified using HOMER essentially as instructed (see, e.g., S. Heinz et al., 2010, J. Mol. Cell, 38:576-589). Detailed methods for HOMER are freely available, e.g., at http://http://homer.salk.edu/homer/. Briefly, the program searches against the target and background sequences for enrichment of known motifs, and returns motifs enriched with a threshold of 1.5-fold change and a p-value of less than 0.05. Promoter regions, defined as 1 kilobase (kB) upstream from the transcription start site, of genes with enhanced chromatin accessibility upon Wnt4 treatment, were interrogated for enriched motifs of 8-16 bp using HOMER motif analysis."}, "wHILO cells": {"tested_on": "wHILO cells", "assay": "Immunohistochemistry and flow cytometry of cell composition", "assay_type": "cell-based, human", "experimental": "Secondary antibodies were coupled to Alexa 568, 647 (Life Technologies), and IHC staining was visualized by confocal microscopy (ZEISS) or fluorescence microscopy. Hoechst 33342 (Thermo Scientific, 62249, 1 μg/ml final concentration) was used for nuclear staining.\nClusters at indicated stages were dissociated with TrypLE (GIBCO) with 20 ug/ml DNase for 12 minutes at 37° C. and then were fixed with 4% PFA for 10 minutes at room temperature. Clusters were then permeabilized with 0.2% Triton X for 10 min, blocking with 10% goat serum for 30 min and stained for various intracellular markers with antibodies, c-peptide, (1/100, abcam, ab30477), PDX-1 (1/100, BD, 562161), NKX6-1 (1/100, BD, 563338), Chromogranin A (1/100, BD, 564583), MAFA (1/100, abcam, ab264583), MAFB (1/100, abcam, ab66506), Glucagon (1/100, abcam, ab82270), Somatostatin (1/100, abcam, 108456) for analysis on a BD Biosciences LSRII instrument. Data were analysed by FlowJo software. Secondary antibodies for c-peptide, Glucagon and Somatostatin were coupled to Alexa 647 (Life Technologies)."}, "postnatal mouse islets": {"tested_on": "postnatal mouse islets", "assay": "rhWNT4 culture of postnatal islets from WT and β cell specific ERRγKO mice", "assay_type": "cell-based", "details": "100 ng/ml for 5 days; WT but not ERRγKO mice", "text": "FIGS. 8A-8H provide images, graphs, a schematic and a diagram showing results related to WNT4 mediated insulin-GFP expression and WNT4-driven metabolic maturation. FIG. 8A presents representative images of mitochondrial content, indicated by MitoTracker (red) staining, in PBS and WNT4 treated HILOs (scale bar, 100 μm). FIG. 8B presents graphs of flow cytometry quantification of insulin expression (GFP) and mitochondrial content in HILOs treated with recombinant human WNT4 (rhWNT4), WNT5A (rhWNT5A), or conditioned medium (CM) from control or WNT5A overexpressing fibroblasts (n=3). Error bars represent SEM. *p<0.05. […]\nInsulin release from intact islets was monitored using batch incubation methods as reported by E. Yoshihara et al., 2016, Cell metabolism, 23:622-634. […] After 30 minutes, the islets were pelleted by centrifugation and secreted insulin levels were determined in the medium by Enzyme Linked Immunosorbent Assay (ELISA), (Rat/mouse Insulin ELISA KIT (Millipore) and Human Insulin ELISA KIT or ultrasensitive human c-peptide ELISA Kit (Millipore) for mouse and human islets, respectively). […] After 30 minutes, the cells were pelleted by centrifugation and c-peptide levels were determined in the supernatant medium using the human c-peptide ELISA KIT (Millipore). […]"}}}
{"molecule": "B1", "values": [{"measurement": "genes with both increased chromatin accessibility and induced expression", "setting": "[1]", "value": 123, "unit": "genes"}, {"measurement": "cellular composition of HILOs", "setting": "wHILO cells", "value": "not altered"}, {"measurement": "mitochondrial metabolic gene expression and GSIS in neonatal islets", "setting": "postnatal mouse islets", "value": "induced the expression of mitochondrial metabolic genes and improved GSIS function"}]}
